From patent US20240052052A1 (ANTENGENE BIOLOGICS, published 2024)
Each block holds one binder with its values, some of them ahead of it.

Experiments:
[1] = target: T1, human CD24 (human, UniProt P25063 27-59, heavily glycosylated, GPI-anchored (as described in the background)); experiment: flow cytometry, HT-29 and Nalm6 cells
T1 construct: whole, on cells; Target of all cell-based FACS assays; also called hCD24; Cluster of differentiation 24
T1 chain (looked up): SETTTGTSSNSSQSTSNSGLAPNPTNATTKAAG
Method: Briefly, HT-29 or Nalm6 cells were washed three times using PBS and firstly incubated with humanized variants. After three times washing, secondary antibody was incubated with cells. MFI of the samples was analyzed with Flow Cytometry and cells-based affinity was calculated.

[2] = target: T1, human CD24; experiment: FACS, 293F-hCD24 cells
[3] = target: T1, human CD24; experiment: FACS, A549 cells
Method: (§1) Sequences of some of antibodies from Table 1 were selected to generate and produce human IgG4 chimeric antibodies. […] The protocol for FACs analysis is described as follows: [0536] a. Digested cells using TrypLE™ Express Enzyme (IX); Centrifuged the harvested cells at 400 g for 5 min and discarding the supernatant. [0537] b. Washed the cells 2 times with cold FACS buffer by centrifuging at 400 g for 5 min and discarding the supernatant. [0538] c. […] Incubate at […] for 1 h. [0539] d. Washed the cells twice by using the condition in step b. Resuspended the cells with 100 μl/well diluted 2nd antibody, incubated at 4 degree for 1 h in the dark. [0540] e. Washed the cells twice by using the condition in step b. Resuspended the cells with 100 μl/well cold FACS buffer. Kept the cells in dark for FACS analysis.

[4] = target: T1, human CD24; experiment: cell-based or functional assay
[5] = target: T1, human CD24; experiment: FACS, Nalm1 cells
[6] = target: T1, human CD24; experiment: FACS, 293F-hCD24 cells
Method: as §1

[7] = target: T1, human CD24; experiment: FACS, MDA-MB-468 cells
Method: as §1

[8] = target: T1, human CD24; experiment: FACS, 5637 cells
[9] = target: T1, human CD24; experiment: FACS, MCF7 cells
Method: (§2) Screening & Expansion: The subcloning plates were screened by Acumen assay and the subclones with good binding ability were expanded to 24-wells for confirmation tests. The specificity and cross-reactivity of these subclones were confirmed with FACs analysis. […] Fluorescent dye-conjugated secondary antibody was used to detect the binding of the primary antibody with the cells. Median fluorescence intensity (MFI) was measured by FACs analysis.

[10] = target: T1, human CD24; experiment: FACS, H1975 cells
Method: as §1

[11] = target: T1, human CD24; experiment: FACS, CHOK1-hCD24 cells
Method: as §1

[12] = target: T1, human CD24; experiment: FACS, 5637 cells
Method: as §1

[13] = target: T1, human CD24; experiment: FACS, H1975 cells
Method: as §2

[14] = target: T1, human CD24; experiment: FACS, MDA-MB-468 cells
[15] = target: T1, human CD24; experiment: FACS, 293F-hCD24 cells
Method: as §2

[16] = target: T1, human CD24; experiment: FACS, HT-29 cells
Method: as §1

[17] = target: T1, human CD24; experiment: FACS, CHOK1-hCD24 cells
[18] = target: T1, human CD24; experiment: FACS, MCF7 cells
[19] = target: T1, human CD24; experiment: FACS, Nalm1 cells
Method: as §1

[20] = target: T1, human CD24; experiment: FACS, MCF7 cells
Method: as §1

[21] = target: T1, human CD24; experiment: FACS, Nalm1 cells
Method: as §2

[22] = target: T1, human CD24; experiment: FACS, 5637 cells
Method: as §2

binding result [1]: binds
B1: 81A1F8-VH-21/VL-41 (antibody, V domains shown)
VH: QVQLVQSGAEVKKPGASVKVSCKASGYLFTGYYMNWVRQAPGQGLEWMGEINPNTGDTNNNQKFKARVTMTVDRSTSTAYMELSSLRSEDTAVYYCVRRDYGTSLDYWGQGTLVTVSS
VL: DVQITQSPSTLSASVGDRVTITCRASKSINKYLAWYQQKPGKAPKLLIHSGSTLQSGVPSRFSGSRSGTEFTLTISSLQPDDFATYYCQQHNEYPITFGQGTKLEIK
notes: humanized antibody based on 81A1F8; also called 81A1F8-2141

EC50 [2]: 3.5 nM | EC50 [3]: 3 nM | Max MFI [3]: 8820 | EC50 (nM), phagocytosis against HT-29 cells [4]: 2.1 nM | Max phagocytosis Index (%), phagocytosis against HT-29 cells [4]: 68.2% | EC50 [5]: 5.08 nM | EC50 [6]: 3.25 nM | Max MFI [6]: 34100 | EC50 [7]: 4.2 nM | FACS MFI [7]: 6690 | Max MFI [7]: 10800 | EC50 [8]: 5.74 nM | FACS MFI [9]: 1080 | EC50 [10]: 8.26 nM | EC50 [11]: 3.63 nM | Max MFI [11]: 29700 | EC50 [12]: 2.7 nM | FACS MFI [13]: 5210 | EC50 [14]: 7.37 nM | FACS MFI [15]: 6560 | EC50 [16]: 6.61 nM | Max MFI [16]: 5900 | EC50 [17]: 8.67 nM | EC50 [18]: 6.54 nM | EC50 [19]: 3.43 nM | Max MFI [19]: 48400 | EC50 [20]: 8 nM | Max MFI [20]: 761 | FACS MFI [21]: 11800 | FACS MFI [22]: 9400
B2: SN3 (antibody, V domains shown)
VH: QVQLKESGPGLVAPSQSLSITCTVSGFSLTSYGVHWVRQPPGKGLEWLGVIWAGGSTNYNSALMSRLSISKDNSKSQVFLKMNSLQTDDTAMYYCAVYYGYLFFAYWGQGTLVTVSA
VL: ENVLTQSPAIMSASPGEKVTMTCSASSSVSYMHWYQQKSTTSPKLWIYDTSKLASGVPGRFSGSGSGNSYSLTISSMEAEDVATYYCFQGSGYPLTFGGGTKLEIK
